# Key:
# SEPT6 = SEPT6 (UniProt Q14141); test: co-IP
# SEPT7 = SEPT7 (UniProt Q16181); test: co-IP
# Chain of SEPT7 (Q16181 whole entry): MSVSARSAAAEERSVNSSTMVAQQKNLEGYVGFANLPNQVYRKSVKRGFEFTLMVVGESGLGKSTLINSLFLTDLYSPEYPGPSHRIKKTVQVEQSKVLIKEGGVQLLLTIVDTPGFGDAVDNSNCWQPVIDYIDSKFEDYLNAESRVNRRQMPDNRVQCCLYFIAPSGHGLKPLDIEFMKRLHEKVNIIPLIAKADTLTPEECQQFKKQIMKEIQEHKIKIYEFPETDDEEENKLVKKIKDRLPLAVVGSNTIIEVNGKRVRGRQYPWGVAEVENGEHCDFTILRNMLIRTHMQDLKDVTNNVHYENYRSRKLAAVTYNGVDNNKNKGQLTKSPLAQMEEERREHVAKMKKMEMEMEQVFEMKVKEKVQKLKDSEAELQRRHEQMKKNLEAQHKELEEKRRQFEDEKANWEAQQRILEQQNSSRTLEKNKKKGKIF
# Chain of SEPT6 (Q14141 whole entry): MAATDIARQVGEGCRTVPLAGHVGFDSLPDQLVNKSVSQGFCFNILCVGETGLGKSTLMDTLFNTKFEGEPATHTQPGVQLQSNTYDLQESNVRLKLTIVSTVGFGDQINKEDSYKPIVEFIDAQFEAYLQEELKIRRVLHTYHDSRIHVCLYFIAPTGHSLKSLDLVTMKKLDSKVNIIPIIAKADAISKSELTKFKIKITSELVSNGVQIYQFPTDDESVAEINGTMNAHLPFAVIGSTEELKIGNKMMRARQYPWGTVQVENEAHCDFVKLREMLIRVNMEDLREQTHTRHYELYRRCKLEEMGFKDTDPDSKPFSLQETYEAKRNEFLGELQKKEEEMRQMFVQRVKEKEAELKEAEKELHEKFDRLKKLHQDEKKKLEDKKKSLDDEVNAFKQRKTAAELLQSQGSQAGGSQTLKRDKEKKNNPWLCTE
Substance,percent of SEPT7 depleted on immunodepletion of SEPT6 (SEPT6),percent of SEPT7 that interacts with SEPT6 (SEPT6),percent of total SEPT6 precipitated with SEPT7 (SEPT7)
SEPT7 (from UniProt Q16181 1-437) (natural protein),30%,43%,–
SEPT6 (from UniProt Q14141 1-434) (natural protein),–,–,24%
